Results from patent US20240270846A1 (published 2024).
Numbering of substitutions follows the chain as printed. In names and notes the source's numbering stands.

B1: GLS3000 S25T (Kabat) L chain altered form, one-arm antibody with CE115HA000 (antibody, human IgG1, kappa, L234A L235A, N297A, name in Kabat numbering)
heavy: QVQLVESGGGVVQPGRSLRLSCAASGFTFSNAWMHWVRQAPGKGLEWVAQIKAKSNNYATYYAESVKGRFTISRDDSKNSLYLQMNSLKTEDTAVYYCRYVHYGAYYGVDAWGQGTTVTVSSASTKGPSVFPLAPSSKSTSGGTAALGCLVKDYFPEPVTVSWNSGALTSGVHTFPAVLQSSGLYSLSSVVTVPSSSLGTQTYICNVNHKPSNTKVDKKVEPKSCDKTHTCPPCPAPEAAGGPSVFLFPPKPKDTLMISRTPEVTCVVVDVSHEDPEVKFNWYVDGVEVHNAKTKPREEQYASTYRVVSVLTVLHQDWLNGKEYKCKVSNKALPAPIEKTISKAKGQPREPQVYTLPPSRCELTKNQVSLSCAVKGFYPSDIAVEWESNGQPENNYKTTPPVLDSDGSFFLVSKLTVDKSRWQQGNVFSCSVMHEALHNHYTQKSLSLSPDYKDDDDK
chain: EPKSSDKTHTCPPCPAPELLGGPSVFLFPPKPKDTLMISRTPEVTCVVVDVSHEDPEVKFNWYVDGVEVHNAKTKPREEQYNSTYRVVSVLTVLHQDWLNGKEYKCKVSNKALPAPIEKTISKAKGQPREPQVCTLPPSRDELTKNQVSLWCLVKGFYPSDIAVEWESNGQPENNYKTTPPVLDSDGSFFLYSKLTVDKSRWQQGNVFSCSVMHEALHNRYTQKSLSLSP
light: DIVMTQSPLSLPVTPGEPASISCRTSQSLVHSNRNTYLHWYQQKPGQAPRLLIYKVSNRFSGVPDRFSGSGSGTDFTLKISRVEAEDVGVYYCGQGTQVPYTFGQGTKLEIKRTVAAPSVFIFPPSDEQLKSGTASVVCLLNNFYPREAKVQWKVDNALQSGNSQESVTEQDSKDSTYSLSSTLTLSKADYEKHKVYACEVTHQGLSSPVTKSFNRGEC
notes: one-arm antibody
B2: GLS3000 S27eM (Kabat) L chain altered form, one-arm antibody with CE115HA000 (antibody, human IgG1, kappa, L234A L235A, N297A, name in Kabat numbering)
heavy: B1 heavy
chain: B1 chain
light: B1 light with T25S, S32M
notes: one-arm antibody
B3: GLS3000 S27aE (Kabat) L chain altered form, one-arm antibody with CE115HA000 (antibody, human IgG1, kappa, L234A L235A, N297A, name in Kabat numbering)
heavy: B1 heavy
chain: B1 chain
light: B1 light with T25S, S28E
notes: one-arm antibody
B4: GLS3000 S27aI (Kabat) L chain altered form, one-arm antibody with CE115HA000 (antibody, human IgG1, kappa, L234A L235A, N297A, name in Kabat numbering)
heavy: B1 heavy
chain: B1 chain
light: B1 light with T25S, S28I
notes: one-arm antibody
B5: GLS3000 S27eL (Kabat) L chain altered form, one-arm antibody with CE115HA000 (antibody, human IgG1, kappa, L234A L235A, N297A, name in Kabat numbering)
heavy: B1 heavy
chain: B1 chain
light: B1 light with T25S, S32L
notes: one-arm antibody
B6: GLS3000 S27eH (Kabat) L chain altered form, one-arm antibody with CE115HA000 (antibody, human IgG1, kappa, L234A L235A, N297A, name in Kabat numbering)
heavy: B1 heavy
chain: B1 chain
light: B1 light with T25S, S32H
notes: one-arm antibody
B7: GLS3000 S27aP (Kabat) L chain altered form, one-arm antibody with CE115HA000 (antibody, human IgG1, kappa, L234A L235A, N297A, name in Kabat numbering)
heavy: B1 heavy
chain: B1 chain
light: B1 light with T25S, S28P
notes: one-arm antibody
B8: GLS3000 S27aG (Kabat) L chain altered form, one-arm antibody with CE115HA000 (antibody, human IgG1, kappa, L234A L235A, N297A, name in Kabat numbering)
heavy: B1 heavy
chain: B1 chain
light: B1 light with T25S, S28G
notes: one-arm antibody
B9: GLS3000 S27eD (Kabat) L chain altered form, one-arm antibody with CE115HA000 (antibody, human IgG1, kappa, L234A L235A, N297A, name in Kabat numbering)
heavy: B1 heavy
chain: B1 chain
light: B1 light with T25S, S32D
notes: one-arm antibody
B10: GLS3000 S27eG (Kabat) L chain altered form, one-arm antibody with CE115HA000 (antibody, human IgG1, kappa, L234A L235A, N297A, name in Kabat numbering)
heavy: B1 heavy
chain: B1 chain
light: B1 light with T25S, S32G
notes: one-arm antibody
B11: GLS3000 S27eF (Kabat) L chain altered form, one-arm antibody with CE115HA000 (antibody, human IgG1, kappa, L234A L235A, N297A, name in Kabat numbering)
heavy: B1 heavy
chain: B1 chain
light: B1 light with T25S, S32F
notes: one-arm antibody
B12: GLS3000 S26E (Kabat) L chain altered form, one-arm antibody with CE115HA000 (antibody, human IgG1, kappa, L234A L235A, N297A, name in Kabat numbering)
heavy: B1 heavy
chain: B1 chain
light: B1 light with T25S, S26E
notes: one-arm antibody
B13: GLS3000 S26D (Kabat) L chain altered form, one-arm antibody with CE115HA000 (antibody, human IgG1, kappa, L234A L235A, N297A, name in Kabat numbering)
heavy: B1 heavy
chain: B1 chain
light: B1 light with T25S, S26D
notes: one-arm antibody
B14: GLS3000 S27eK (Kabat) L chain altered form, one-arm antibody with CE115HA000 (antibody, human IgG1, kappa, L234A L235A, N297A, name in Kabat numbering)
heavy: B1 heavy
chain: B1 chain
light: B1 light with T25S, S32K
notes: one-arm antibody
B15: GLS3000 S26P (Kabat) L chain altered form, one-arm antibody with CE115HA000 (antibody, human IgG1, kappa, L234A L235A, N297A, name in Kabat numbering)
heavy: B1 heavy
chain: B1 chain
light: B1 light with T25S, S26P
notes: one-arm antibody
B16: GLS3000 S27eE (Kabat) L chain altered form, one-arm antibody with CE115HA000 (antibody, human IgG1, kappa, L234A L235A, N297A, name in Kabat numbering)
heavy: B1 heavy
chain: B1 chain
light: B1 light with T25S, S32E
notes: one-arm antibody
B17: GLS3000 S27eA (Kabat) L chain altered form, one-arm antibody with CE115HA000 (antibody, human IgG1, kappa, L234A L235A, N297A, name in Kabat numbering)
heavy: B1 heavy
chain: B1 chain
light: B1 light with T25S, S32A
notes: one-arm antibody
B18: GLS3000 S27aY (Kabat) L chain altered form, one-arm antibody with CE115HA000 (antibody, human IgG1, kappa, L234A L235A, N297A, name in Kabat numbering)
heavy: B1 heavy
chain: B1 chain
light: B1 light with T25S, S28Y
notes: one-arm antibody
B19: GLS3000 S27eN (Kabat) L chain altered form, one-arm antibody with CE115HA000 (antibody, human IgG1, kappa, L234A L235A, N297A, name in Kabat numbering)
heavy: B1 heavy
chain: B1 chain
light: B1 light with T25S, S32N
notes: one-arm antibody
B20: GLS3000 S25V (Kabat) L chain altered form, one-arm antibody with CE115HA000 (antibody, human IgG1, kappa, L234A L235A, N297A, name in Kabat numbering)
heavy: B1 heavy
chain: B1 chain
light: B1 light with T25V
notes: one-arm antibody
B21: GLS3000 S27eI (Kabat) L chain altered form, one-arm antibody with CE115HA000 (antibody, human IgG1, kappa, L234A L235A, N297A, name in Kabat numbering)
heavy: B1 heavy
chain: B1 chain
light: B1 light with T25S, S32I
notes: one-arm antibody
B22: GLS3000 S27aN (Kabat) L chain altered form, one-arm antibody with CE115HA000 (antibody, human IgG1, kappa, L234A L235A, N297A, name in Kabat numbering)
heavy: B1 heavy
chain: B1 chain
light: B1 light with T25S, S28N
notes: one-arm antibody
B23: GLS3000 S27aD (Kabat) L chain altered form, one-arm antibody with CE115HA000 (antibody, human IgG1, kappa, L234A L235A, N297A, name in Kabat numbering)
heavy: B1 heavy
chain: B1 chain
light: B1 light with T25S, S28D
notes: one-arm antibody

The binders below were run against T1, CD3 epsilon homodimer protein (UniProt P07766 23-126) (assay: SPR Biacore T200, CD3 epsilon homodimer immobilized; vs unaltered GLS3000;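 note: antibody variants flowed as analyte over CD3 epsilon homodimer amine-coupled to a CM4 chip, at 25 °C in HBS-EP+ running buffer, fitted with Biacore T200 Evaluation Software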).
T1 construct: construct not described; homodimer as printed; also called CD3 (CD3 epsilon)
T1 sequence (P07766 23-126): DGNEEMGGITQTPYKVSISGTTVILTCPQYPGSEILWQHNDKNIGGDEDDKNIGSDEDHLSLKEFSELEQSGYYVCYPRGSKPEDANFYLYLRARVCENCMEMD
For B1, the “KD ratio to GLS3000 (Affinity up)” value was 0.75.
For B2, the “KD ratio to GLS3000 (Affinity up)” value was 1.11.
B3 was tested, and the “KD ratio to GLS3000 (Affinity up)” value was 0.94.
In the case of B4, the “KD ratio to GLS3000 (Affinity up)” value is reported as 0.87.
In the case of B5, the “KD ratio to GLS3000 (Affinity up)” value is reported as 1.06.
B6 was tested, and the “KD ratio to GLS3000 (Affinity up)” value was 1.09.
For B7, the “KD ratio to GLS3000 (Affinity up)” value was 1.01.
With B8 the “KD ratio to GLS3000 (Affinity up)” value was 0.8.
B9 was tested, and the “KD ratio to GLS3000 (Affinity up)” value was 1.23.
B10 was tested, and the “KD ratio to GLS3000 (Affinity up)” value was 1.03.
In the case of B11, the “KD ratio to GLS3000 (Affinity up)” value is reported as 1.16.
For B12, the “KD ratio to GLS3000 (Affinity up)” value was 0.9.
B13 was tested, and the “KD ratio to GLS3000 (Affinity up)” value was 1.06.
B14 was tested, and the “KD ratio to GLS3000 (Affinity up)” value was 1.32.
With B15 the “KD ratio to GLS3000 (Affinity up)” value was 0.67.
For B16, the “KD ratio to GLS3000 (Affinity up)” value was 1.04.
For B17, the “KD ratio to GLS3000 (Affinity up)” value was 1.01.
With B18 the “KD ratio to GLS3000 (Affinity up)” value was 0.93.
B19 was tested, and the “KD ratio to GLS3000 (Affinity up)” value was 1.01.
In the case of B20, the “KD ratio to GLS3000 (Affinity up)” value is reported as 0.74.
For B21, the “KD ratio to GLS3000 (Affinity up)” value was 1.05.
For B22, the “KD ratio to GLS3000 (Affinity up)” value was 0.98.
For B23, the “KD ratio to GLS3000 (Affinity up)” value was 0.94.
